The text below walks through data of patent publication US20160355588A1 (published 2016).

Test [1] concerns the target T1, CD3 on Jurkat T cells (human, UniProt P07766 23-207). The experiment in a line: whole cell binding.
Test [2] addresses T1, CD3 on Jurkat T cells. Briefly: whole cell binding. This is another data set of the same source.
In test [3] the target is T1, CD3 on Jurkat T cells.
The target of test [4] is T1, CD3 on Jurkat T cells. The source holds these as a separate data set.
Another test deals with v6475. The experiment in a line: whole cell binding.
A further test addresses v1653. The experiment in a line: whole cell binding.

Read-outs that look alike come from different tables or passages of the source.

B1: v1853 (bispecific antibody)
heavy: QVQLVQSGGGVVQPGRSLRLSCKASGYTFTRYTMHWVRQAPGKGLEWIGYINPSRGYTNYNQKVKDRFTISRDNSKNTAFLQMDSLRPEDTGVYFCARYYDDHYCLDYWGQGTPVTVSSASTKGPSVFPLAPSSKSTSGGTAALGCLVKDYFPEPVTVSWNSGALTSGVHTFPAVLQSSGLYSLSSVVTVPSSSLGTQTYICNVNHKPSNTKVDKKVEPKSCDKTHTCPPCPAPELLGGPSVFLFPPKPKDTLMISRTPEVTCVVVDVSHEDPEVKFNWYVDGVEVHNAKTKPREEQYNSTYRVVSVLTVLHQDWLNGKEYKCKVSNKALPAPIEKTISKAKGQPREPQVYVYPPSRDELTKNQVSLTCLVKGFYPSDIAVEWESNGQPENNYKTTPPVLDSDGSFALVSKLTVDKSRWQQGNVFSCSVMHEALHNHYTQKSLSLSPGK
chain: not shown
light: DIQMTQSPSSLSASVGDRVTITCSASSSVSYMNWYQQTPGKAPKRWIYDTSKLASGVPSRFSGSGSGTDYTFTISSLQPEDIATYYCQQWSSNPFTFGQGTKLQITRTVAAPSVFIFPPSDEQLKSGTASVVCLLNNFYPREAKVQWKVDNALQSGNSQESVTEQDSKDSTYSLSSTLTLSKADYEKHKVYACEVTHQGLSSPVTKSFNRGEC
In the case of B1, the Kd with CD3 on Jurkat T cells [1] and with CD3 on Jurkat T cells [2] was roughly 5 nM in each case.

B2: v6750 (bispecific antibody)
heavy: QVQLQQSGAELVRPGSSVKISCKASGYAFSSYWMNWVKQRPGQGLEWIGQIWPGDGDTNYNGKFKGKATLTADESSSTAYMQLSSLASEDSAVYFCARRETTTVGRYYYAMDYWGQGTTVTVSSASTKGPSVFPLAPSSKSTSGGTAALGCLVKDYFPEPVTVSWNSGALTSGVHTFPAVLQSSGLYSLSSVVTVPSSSLGTQTYICNVNHKPSNTKVDKKVEPKSCDKTHTCPPCPAPELLGGPSVFLFPPKPKDTLMISRTPEVTCVVVDVSHEDPEVKFNWYVDGVEVHNAKTKPREEQYNSTYRVVSVLTVLHQDWLNGKEYKCKVSNKALPAPIEKTISKAKGQPREPQVYVYPPSRDELTKNQVSLTCLVKGFYPSDIAVEWESNGQPENNYKTTPPVLDSDGSFALVSKLTVDKSRWQQGNVFSCSVMHEALHNHYTQKSLSLSPG
chain: not shown
light: not shown
As to B2, the Kd with CD3 on Jurkat T cells [3] and in the test with CD3 on Jurkat T cells [4] was roughly 30 nM each time.

B3: Raji B cells (receptor)
chain: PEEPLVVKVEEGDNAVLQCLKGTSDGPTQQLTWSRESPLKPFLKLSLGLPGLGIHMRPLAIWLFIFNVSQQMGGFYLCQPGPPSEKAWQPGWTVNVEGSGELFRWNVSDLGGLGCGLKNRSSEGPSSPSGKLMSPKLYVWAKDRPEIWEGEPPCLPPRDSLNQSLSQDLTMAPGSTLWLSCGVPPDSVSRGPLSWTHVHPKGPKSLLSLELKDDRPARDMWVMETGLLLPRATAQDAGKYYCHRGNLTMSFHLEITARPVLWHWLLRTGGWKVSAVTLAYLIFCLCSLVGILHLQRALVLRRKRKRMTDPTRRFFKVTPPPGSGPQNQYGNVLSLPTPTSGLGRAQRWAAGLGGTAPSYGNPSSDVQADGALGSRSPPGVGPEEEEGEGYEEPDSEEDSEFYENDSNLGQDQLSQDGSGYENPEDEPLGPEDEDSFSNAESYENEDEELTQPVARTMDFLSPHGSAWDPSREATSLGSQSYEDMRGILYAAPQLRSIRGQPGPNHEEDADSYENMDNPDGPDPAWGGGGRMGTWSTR
Consider B3, for which the Kd – broadly, the equilibrium constant for the complex coming apart – in the test with v6475 worked out at 1.5 nM; in the test with v1653 it was 1.4 nM.

B4: v875 (bispecific antibody)
chain 1: DIQLTQSPASLAVSLGQRATISCKASQSVDYDGDSYLNWYQQIPGQPPKLLIYDASNLVSGIPPRFSGSGSGTDFTLNIHPVEKVDAATYHCQQSTEDPWTFGGGTKLEIKGGGGSGGGGSGGGGSQVQLQQSGAELVRPGSSVKISCKASGYAFSSYWMNWVKQRPGQGLEWIGQIWPGDGDTNYNGKFKGKATLTADESSSTAYMQLSSLASEDSAVYFCARRETTTVGRYYYAMDYWGQGTTVTVSSAAEPKSSDKTHTCPPCPAPELLGGPSVFLFPPKPKDTLMISRTPEVTCVVVDVSHEDPEVKFNWYVDGVEVHNAKTKPREEQYNSTYRVVSVLTVLHQDWLNGKEYKCKVSNKALPAPIEKTISKAKGQPREPQVYTYPPSRDELTKNQVSLTCLVKGFYPSDIAVEWESNGQPENNYKTTPPVLDSDGSFALVSKLTVDKSRWQQGNVFSCSVMHEALHNHYTQKSLSLSPGK
chain 2: not shown
With B4, the equilibrium dissociation constant (Kd) with CD3 on Jurkat T cells [1] and in the test with CD3 on Jurkat T cells [2] was roughly 30 nM throughout.
